Article PMC9839807 (2022)

B1: DACT1 (dishevelled binding antagonist of beta catenin 1), wildtype, Myc-tagged [human] / DVL2 (dishevelled segment polarity protein 2), Flag(3x)-tagged [not stated] (parent complex)
chain 1: MKPSPAGTAKELEPPAPARGEQRTAEPEGRWREKGEADTERQRTRERQEATLAGLAELEYLRQRQELLVRGALRGAGGAGAAAPRAGELLGEAAQRSRLEEKFLEENILLLRKQLNCLRRRDAGLLNQLQELDKQISDLRLDVEKTSEEHLETDSRPSSGFYELSDGASGSLSNSSNSVFSECLSSCHSSTCFCSPLEATLSLSDGCPKSADLIGLLEYKEGHCEDQASGAVCRSLSTPQFNSLDVIADVNPKYQCDLVSKNGNDVYRYPSPLHAVAVQSPMFLLCLTGNPLREEDRLGNHASDICGGSELDAVKTDSSLPSPSSLWSASHPSSSKKMDGYILSLVQKKTHPVRTNKPRTSVNADPTKGLLRNGSVCVRAPGGVSQGNSVNLKNSKQACLPSGGIPSLNNGTFSPPKQWSKESKAEQAESKRVPLPEGCPSGAASDLQSKHLPKTAKPASQEHARCSAIGTGESPKESAQLSGASPKESPSRGPAPPQENKVVQPLKKMSQKNSLQGVPPATPPLLSTAFPVEERPALDFKSEGSSQSLEEAHLVKAQFIPGQQPSVRLHRGHRNMGVVKNSSLKHRGPALQGLENGLPTVREKTRAGSKKCRFPDDLDTNKKLKKASSKGRKSGGGPEAGVPGRPAGGGHRAGSRAHGHGREAVVAKPKHKRTDYRRWKSSAEISYEEALRRARRGRRENVGLYPAPVPLPYASPYAYVASDSEYSAECESLFHSTVVDTSEDEQSNYTTNCFGDSESSVSEGEFVGESTTTSDSEESGGLIWSQFVQTLPIQTVTAPDLHNHPAKTFVKIKASHNLKKKILRFRSGSLKLMTTV
chain 2: MAGSSTGGGGVGETKVIYHLDEEETPYLVKIPVPAERITLGDFKSVLQRPAGAKYFFKSMDQDFGVVKEEISDDNARLPCFNGRVVSWLVSSDNPQPEMAPPVHEPRAELAPPAPPLPPLPPERTSGIGDSRPPSFHPNVSSSHENLEPETETESVVSLRRERPRRRDSSEHGAGGHRTGGPSRLERHLAGYESSSTLMTSELESTSLGDSDEEDTMSRFSSSTEQSSASRLLKRHRRRRKQRPPRLERTSSFSSVTDSTMSLNIITVTLNMEKYNFLGISIVGQSNERGDGGIYIGSIMKGGAVAADGRIEPGDMLLQVNDMNFENMSNDDAVRVLRDIVHKPGPIVLTVAKCWDPSPQAYFTLPRNEPIQPIDPAAWVSHSAALTGTFPAYPGSSSMSTITSGSSLPDGCEGRGLSVHTDMASVTKAMAAPESGLEVRDRMWLKITIPNAFLGSDVVDWLYHHVEGFPERREARKYASGLLKAGLIRHTVNKITFSEQCYYVFGDLSGGCESYLVNLSLNDNDGSSGASDQDTLAPLPGATPWPLLPTFSYQYPAPHPYSPQPPPYHELSSYTYGGGSASSQHSEGSRSSGSTRSDGGAGRTGRPEERAPESKSGSGSESEPSSRGGSLRRGGEASGTSDGGPPPSRGSTGGAPNLRAHPGLHPYGPPPGMALPYNPMMVVMMPPPPPPVPPAVQPPGAPPVRDLGSVPPELTASRQSFHMAMGNPSEFFVDVM

Variants of: B1
Test: co-immunoprecipitation (IP: anti-Myc), band ratio quantified; parent: 1; read off a plot

| response | Variant |
| --- | --- |
| ~0.7 | chain 1 L591F |
| ~0.72 | chain 1 T367K |
| ~0.68 | chain 1 K630N |
| ~0.6 | chain 1 L823R |
| ~0.69 | chain 1 P669A |
| ~0.69 | chain 1 R568K |
| ~0.72 | chain 1 G644D |
